The text below walks through data of publication doi:10.1101/626572.

This data set concerns the target Concanavalin A (Con A) (UniProt P02866;P02866 164-281;30-148). Put plainly: particle-based flow cytometry. (Flow cytometry measures light scatter and fluorescence of single cells or particles in a stream.)

Chain of Concanavalin A (Con A) (P02866 164-281, chain 1 of 2): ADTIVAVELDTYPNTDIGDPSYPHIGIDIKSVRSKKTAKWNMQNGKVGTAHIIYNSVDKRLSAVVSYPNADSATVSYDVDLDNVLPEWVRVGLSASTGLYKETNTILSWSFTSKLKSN
Chain of Concanavalin A (Con A) (P02866 30-148, chain 2 of 2): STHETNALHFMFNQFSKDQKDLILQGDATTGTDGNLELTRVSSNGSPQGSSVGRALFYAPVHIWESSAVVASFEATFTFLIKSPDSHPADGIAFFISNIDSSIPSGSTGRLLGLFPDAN

B1: ConA-3-1n (ssDNA)
DNA: GATCCCAGTCCGAAGTAATCGTTGCATCTGCACGACTGGTGAGCTTGAGTGGCAGAAGAACTTGTGCAAACGGCTATAGG
Consider B1, for which the binding result is “no binding”.
